Legend:
[1] = molecular target: T1, PPARγ (Oryctolagus cuniculus, UniProt O19052); experiment: J3-TK-LUC PPRE-driven luciferase reporter in RK-13 cells; assay type: cell-based, rabbit
T1 construct: endogenous in cells; host or cells: RK-13 (rabbit kidney, ATCC)
T1 sequence (O19052 1-475): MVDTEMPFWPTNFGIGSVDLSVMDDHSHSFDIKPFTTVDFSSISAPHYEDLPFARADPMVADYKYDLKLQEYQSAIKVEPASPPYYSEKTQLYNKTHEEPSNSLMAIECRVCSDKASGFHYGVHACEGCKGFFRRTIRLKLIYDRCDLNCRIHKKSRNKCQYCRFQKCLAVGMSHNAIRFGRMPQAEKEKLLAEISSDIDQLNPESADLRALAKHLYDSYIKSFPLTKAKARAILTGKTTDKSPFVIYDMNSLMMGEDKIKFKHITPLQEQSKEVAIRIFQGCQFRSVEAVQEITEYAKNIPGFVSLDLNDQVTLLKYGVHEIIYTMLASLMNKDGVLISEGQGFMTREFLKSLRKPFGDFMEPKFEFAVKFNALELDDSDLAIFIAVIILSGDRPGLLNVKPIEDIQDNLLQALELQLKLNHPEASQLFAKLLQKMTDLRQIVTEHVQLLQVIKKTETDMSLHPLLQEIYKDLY
Description: Next we wanted to assess whether the above-mentioned changes in PPARγ expression were associated with changes in the capabilities of PPARγ to transactivate. A PPRE-driven luciferase reporter gene, containing three copies of the apo A-II J site (Vu-Dac et al., 1995), ie. J3-TK-LUC, was transfected into rabbit kidney-derived RK-13 cells and half of the cells were maintained in cholesterol-depleted medium whereas the other half was grown in the same medium supplemented with a mixture of cholesterol and 25-hydroxycholesterol.
Site-directed mutagenesis of the E-box in the PPARγ3 promoter was performed by splicing overlapping ends polymerase chain reaction (Ho, et al., Gene 77:51–59 (1989)), using the oligo pairs LF-106/LF-60 and LF-107/LF-68, to generate the plasmid pGL3γ3p800-E-boxmut. This changed the three bases underlined in the sequence 5′-[…]-3′ to 5′-[…]-3′ (SEQ ID NOS: 41 and 42, respectively. The J3-TK-LUC (Vu-Dac et al., 1995) and ACO-TK-LUC (Osumi et al., Biophys. Res. Commun. 175:866–871 (1991)) luciferase reporter vectors and the expression vectors encoding for ADD-1, a dominant negative form of ADD-1, and SREBP-1a (Tontonoz et al., Mol. Cell. Biol. 13:4753–4759 (1993)); Yokoyama et al., Cell 75:187–197 (1993)) were described before. […]

[2] = test system: PPARγ mRNA; experiment: RNase protection assay of PPARγ mRNA in retrovirally infected 3T3-L1 cells; assay type: cell-based, mouse; details: 3T3-L1 preadipocytes and adipocytes; retroviral ectopic expression
Description: To study the effects of ADD-1 on PPARγ expression in more detail, either an empty retroviral vector pBabe or the same vector encoding for full length ADD-1 or the superactive ADD-1-403 form were introduced into 3T3-L1 cells via retroviral infection. […] Infected cells were then cultured to confluence and consecutively treated with differentiation medium. Total RNA was isolated at confluence (preadipocytes) and at day 6 after confluence (adipocytes) from the cells expressing either the empty pBabe vector or the same vector encoding for ADD-1 or ADD-1-403, a truncated form of ADD-1, equivalent to the proteolytically activated protein, which lacks the membrane anchoring domain. […] The effect of retroviral infection was more pronounced in 3T3-L1 adipocytes relative to preadipocytes.
Control cells received vehicle only.
The absolute mRNA concentration of the differentially spliced PPARγ variants was measured by RNase protection assay exactly as described (Lemberger et al., J. Biol. Chem. 271:1764–1769 (1995)). The full lenght PPARγ2 coding region plus 33 bp of the 5′ UTR was amplified from human adipose tissue RNA by RT-PCR with the primer pair LF-3/LF-36 and was inserted in the inverted orientation (3′ to 5′ in front of the T7 promoter) into the EcoRI site of the expression vector pSG5 (Stratagene, La Jolla, Calif.). […]

[3] = molecular target: T2, ADD-1 (UniProt P56720-1 P56720-1:1-1110); experiment: cell_activity; pGL3gamma3p800 luciferase reporter, Hep G2; details: tags: expression vector, Hep G2 cells
T2 sequence: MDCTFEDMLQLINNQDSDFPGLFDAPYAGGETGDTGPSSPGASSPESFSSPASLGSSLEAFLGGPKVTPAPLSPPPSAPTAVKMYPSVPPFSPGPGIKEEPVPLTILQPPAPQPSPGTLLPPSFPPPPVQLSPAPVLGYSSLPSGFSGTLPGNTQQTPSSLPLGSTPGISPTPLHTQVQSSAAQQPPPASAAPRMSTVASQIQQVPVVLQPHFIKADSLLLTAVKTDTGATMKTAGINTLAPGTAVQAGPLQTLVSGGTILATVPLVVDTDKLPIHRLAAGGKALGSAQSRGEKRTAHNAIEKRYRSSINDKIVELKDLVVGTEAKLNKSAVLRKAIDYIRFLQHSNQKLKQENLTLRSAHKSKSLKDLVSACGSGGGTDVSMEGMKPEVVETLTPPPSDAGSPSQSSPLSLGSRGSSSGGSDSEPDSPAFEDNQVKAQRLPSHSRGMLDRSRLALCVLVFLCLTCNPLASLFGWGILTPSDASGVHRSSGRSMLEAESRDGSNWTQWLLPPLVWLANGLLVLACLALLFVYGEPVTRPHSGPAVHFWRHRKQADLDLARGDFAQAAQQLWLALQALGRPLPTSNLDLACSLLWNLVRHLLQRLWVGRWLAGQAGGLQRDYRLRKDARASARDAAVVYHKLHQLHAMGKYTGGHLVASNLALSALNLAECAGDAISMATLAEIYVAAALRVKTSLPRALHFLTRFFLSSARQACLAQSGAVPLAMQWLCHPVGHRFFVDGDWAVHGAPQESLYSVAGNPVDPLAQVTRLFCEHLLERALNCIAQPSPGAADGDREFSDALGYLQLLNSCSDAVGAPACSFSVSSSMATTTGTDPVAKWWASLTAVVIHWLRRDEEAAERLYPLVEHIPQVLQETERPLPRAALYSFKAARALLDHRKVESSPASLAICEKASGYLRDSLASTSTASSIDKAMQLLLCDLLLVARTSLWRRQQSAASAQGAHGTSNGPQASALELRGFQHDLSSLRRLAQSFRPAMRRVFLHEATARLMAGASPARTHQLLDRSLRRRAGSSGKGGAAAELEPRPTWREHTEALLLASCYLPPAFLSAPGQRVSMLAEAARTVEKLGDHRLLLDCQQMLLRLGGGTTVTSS
Description: To assess whether ADD-1 regulates the expression of the hPPARγ3 mRNA, we cotransfected either an expression plasmid coding for ADD-1 together with the pGL3γ3p800 luciferase reporter vector.

[4] = molecular target: T3, hPPARγ2, in vitro transcribed/translated protein (human, UniProt P37231 1-505); experiment: EMSA with in vitro translated proteins on the apoA-II J site PPRE oligonucleotide; heterodimer complex on DNA
T3 construct: PPARγ2 isoform, with the additional N-terminal amino acids encoded by exon B; also called human PPARγ2
T3 sequence (looked up): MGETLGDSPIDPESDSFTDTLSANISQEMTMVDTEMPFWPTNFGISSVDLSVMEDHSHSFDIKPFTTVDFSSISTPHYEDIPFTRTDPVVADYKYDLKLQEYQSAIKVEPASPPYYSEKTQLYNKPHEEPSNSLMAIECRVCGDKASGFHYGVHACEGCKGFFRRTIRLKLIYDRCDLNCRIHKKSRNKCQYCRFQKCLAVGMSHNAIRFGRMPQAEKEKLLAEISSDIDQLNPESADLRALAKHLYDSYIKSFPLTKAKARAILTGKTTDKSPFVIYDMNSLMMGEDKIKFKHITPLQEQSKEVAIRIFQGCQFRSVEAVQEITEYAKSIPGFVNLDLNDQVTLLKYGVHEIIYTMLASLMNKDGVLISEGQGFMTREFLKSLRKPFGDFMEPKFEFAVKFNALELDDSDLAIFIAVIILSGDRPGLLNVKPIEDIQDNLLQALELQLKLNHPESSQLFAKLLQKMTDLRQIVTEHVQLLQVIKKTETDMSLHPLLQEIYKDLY
Description: To analyze whether PPARγ could bind to a PPRE, classically composed of direct repeats spaced by one intervening nucleotide (DR-1), EMSA was performed using in vitro transcribed/translated PPARγ2 protein. An oligonucleotide containing a high affinity PPRE, previously identified in the apoA-II promoter J site, was used in EMSA (29).
7. Electrophoretic Mobility Shift Assays (EMSA) and Oligonucleotide Sequences haPPARγ (39), hPPARγ2, and mRXRα (40) proteins were synthesized in vitro in rabbit reticulocyte lysate (Promega). Molecular weights and quality of the in vitro translated proteins were verified by SDS-PAGE. PPAR (2 μl) and/or RXR (2 μl) were incubated for 15 min on ice in a total volume of 20 μl with 1-ng probe, 2.5 μg of poly(dI-dC) and 1 μg of herring sperm DNA in binding buffer (10 mM Tris-HCl pH 7.9, 40 mMKCl, 10% glycerol, 0.05% Nonidet P-40, and 1 mM dithiothreitol). For competition experiments, increasing amounts (from 10- to 200-fold molar excess) of cold oligonucleotide (AII-J-PPRE, 5'-[…]-3' (41) SEQ ID NO: 24; acyl-CoA oxidase (ACO)-PPRE, 5'-[…]-3' (42) SEQ ID NO: 25; or LPL-PPRE, 5'-[…]-3 (23) SEQ ID NO: 26; were included just before adding T4-PNK end-labeled AII-J-PPRE oligonucleotide. DNA-protein complexes were separated by electrophoresis on a 4% polyacrylamide gel in 0.25×TBE buffer at 4° C. (43).

In the case of `CN(CCOc1ccc(CC2SC(=O)NC2=O)cc1)c1ccccn1` (centres unmarked) [BRL 49,653], the “J3-TK-LUC reporter activation under cholesterol depletion versus supplemented medium” value ([1]; cholesterol-depleted medium) is reported as “activated to a significantly higher level” and the “promoter activity of J3-TK-LUC reporter” value ([1]; increasing amounts of ligand, cholesterol-depleted or supplemented medium) is reported as “dose-dependent activation”.

B1: ADD-1-403: truncated superactive form of ADD-1 lacking the membrane anchoring domain, equivalent to the proteolytically activated protein (protein, UniProt P56720 1-403, looked up, fragment)
chain: MDELPFGEAALEQALAEVCEMDAALLTDIEDMLQLINNQDSDFPGLFDAPYAGGETGDTGPSSPGASSPESFSSPASLGSSLEAFLGGPKVTPAPLSPPPSAPTAVKMYPSVPPFSPGPGIKEEPVPLTILQPPAPQPSPGTLLPPSFPPPPVQLSPAPVLGYSSLPSGFSGTLPGNTQQTPSSLPLGSTPGISPTPLHTQVQSSAAQQPPPASAAPRMSTVASQIQQVPVVLQPHFIKADSLLLTAVKTDTGATMKTAGINTLAPGTAVQAGPLQTLVSGGTILATVPLVVDTDKLPIHRLAAGGKALGSAQSRGEKRTAHNAIEKRYRSSINDKIVELKDLVVGTEAKLNKSAVLRKAIDYIRFLQHSNQKLKQENLTLRSAHKSKSLKDLVSACGSGGGT
In the case of B1, the “expression of PPARγ mRNA” value [2] is reported as “significantly more active”.

B2: PPARgamma3 E-box (LF-102; core printed) (dsDNA)
DNA 1: ATTCATGTGACAT
DNA 2: ATGTCACATGAAT
With B2 the activity [3] was ≥ 4 fold.

B3: mRXRα, in vitro translated protein (receptor, mouse, UniProt P28700 1-467, looked up)
chain: MDTKHFLPLDFSTQVNSSSLNSPTGRGSMAVPSLHPSLGPGIGSPLGSPGQLHSPISTLSSPINGMGPPFSVISSPMGPHSMSVPTTPTLGFGTGSPQLNSPMNPVSSTEDIKPPLGLNGVLKVPAHPSGNMASFTKHICAICGDRSSGKHYGVYSCEGCKGFFKRTVRKDLTYTCRDNKDCLIDKRQRNRCQYCRYQKCLAMGMKREAVQEERQRGKDRNENEVESTSSANEDMPVEKILEAELAVEPKTETYVEANMGLNPSSPNDPVTNICQAADKQLFTLVEWAKRIPHFSELPLDDQVILLRAGWNELLIASFSHRSIAVKDGILLATGLHVHRNSAHSAGVGAIFDRVLTELVSKMRDMQMDKTELGCLRAIVLFNPDSKGLSNPAEVEALREKVYASLEAYCKHKYPEQPGRFAKLLLRLPALRSIGLKCLEHLFFFKLIGDTPIDTFLMEMLEAPHQAT
notes: also called mouse retinoid X receptor alpha
B3: binds [4].

From patent US7098025B1, “Human peroxisome proliferator activated receptor gamma (pparγ) gene regulatory sequences and uses therefor” (Ligand Pharmaceuticals Incorporated, priority 1997, dated 2006)
